Data set [1] relates to C[C@@H](O)[C@H](N)C(=O)O. In words: purified protein. As to conditions: 1 mM phenylacetaldehyde (non-saturating), PLP, MgCl2, phosphate pH 7.5, 30 °C.
The test system of data set [2] is T1, PbTTA.
T1 construct: N-terminal hexahistidine-SUMO tag with TEV site kept (screen done with SUMO fusion intact), E. coli BL21
Put plainly: TTA-ADH coupled assay (NADH depletion at […] nm), non-linear regression. The data set is classed as biochemical. As to conditions: 1 mM phenylacetaldehyde (non-saturating), PLP, MgCl2, phosphate pH 7.5, 30 °C; read-out: apparent KM.

Substrate in data set [3]: C[C@@H](O)[C@H](N)C(=O)O
In words: purified protein. The data set is classed as biochemical, Pseudomonas fluorescens. As to conditions: 1 mM phenylacetaldehyde (non-saturating), PLP, MgCl2, phosphate pH 7.5, 30 °C.

For the molecule s-KaTTA (Kitasatospora aureofaciens), the Km in data set [1] turned out to be 19.1 mM.

Take `C[C@@H](O)[C@H](N)C(=O)O` [L-Thr]: the Km in data set [2] was 10.9 mM. As to PiTTA (Pseudomonas sp. Irchel s3a18), in data set [1], the Km is 35.8 (21.0, 41.5) mM and the kcat is 276.4 (260, 294.7) min-1.

B1: ObiH (Pseudomonas fluorescens) (protein)
chain: MSNVKQQTAQIVDWLSSTLGKDHQYREDSLSLTANENYPSALVRLTSGSTAGAFYHCSFPFEVPAGEWHFPEPGHMNAIADQVRDLGKTLIGAQAFDWRPNGGSTAEQALMLAACKPGEGFVHFAHRDGGHFALESLAQKMGIEIFHLPVNPTSLLIDVAKLDEMVRRNPHIRIVILDQSFKLRWQPLAEIRSVLPDSCTLTYDMSHDGGLIMGGVFDSPLSCGADIVHGNTHKTIPGPQKGYIGFKSAQHPLLVDTSLWVCPHLQSNCHAEQLPPMWVAFKEMELFGRDYAAQIVSNAKTLARHLHELGLDVTGESFGFTQTHQVHFAVGDLQKALDLCVNSLHAGGIRSTNIEIPGKPGVHGIRLGVQAMTRRGMKEKDFEVVARFIADLYFKKTEPAKVAQQIKEFLQAFPLAPLAYSFDNYLDEELLAAVYQGAQR
notes: N-terminal hexahistidine tag, expressed in E. coli BL21, codon-optimised gene; tag kept
Consider B1, for which, in data set [3], the Km came out at 29.5 mM.
